Experimental data: US20050182242A1, “Global analysis of protein activities using proteome chips” (priority 2001, published 2005)

B1: GPM3: yeast phosphoglycerate mutase, GST-HisX6 fusion (protein, UniProt Q12326 1-303, looked up)
Phosphoglycerate mutase 3: MTVTDTFKLFILRHGQSELNSENIFCGWIDAQLTEKGKSQARHSAKLIKQFCDSNNISLPQIGYTSRLIRTQQTMDVILEELGLKHTNYVITTNTNIKEELQDTRFEGSMPVLQTWRLNERHYGAWQGQRKPDILKEYGKEKYMYIRRDYNGKPPKVNLNLEMVQEENDQGSSTGYDFKEPNRHLKYGPEEKANERLPESESLCEVVVRLKPFLNNVVLSTANKISQESCVIVGHGSSVRSLLKVLEGISDEDIKDVDIPNGIPLVIELDRDNYSFVRKFYLDPESAKVNAQMVRDEGFEKNP
modifications: GST-His6 tag
notes: yeast phosphoglycerate mutase, GST-HisX6 fusion
B2: THI13: yeast protein involved in nucleotide metabolism, GST-HisX6 fusion (protein, UniProt Q07748 1-340, looked up)
4-amino-5-hydroxymethyl-2-meth …: MSTDKITFLLNWQPTPYHIPIFLAQTKGYFKEQGLDIAILEPTNPSDVTELIGSGKVDMGLKAMIHTLAAKARGFPVTSVASLLDEPFTGVLYLKGSGITEDFQSLKGKKIGYVGEFGKIQIDELTKHYGMKPEDYTAVRCGMNVAKYIIEGKIDAGIGIECMQQVELEEYLAKQGRPASDAKMLRIDKLACLGCCCFCTVLYICNDEFLKKNPEKVRKFLKAIKKATDYVLADPVKAWKEYIDFKPQLNNDLSYKQYQRCYAYFSSSLYNVHRDWKKVTGYGKRLAILPPDYVSNYTNEYLSWPEPEEVSDPLEAQRLMAIHQEKCRQEGTFKRLALPA
modifications: GST-His6 tag
notes: yeast protein involved in nucleotide metabolism, GST-HisX6 fusion
B3: ATP1: yeast alpha subunit of F1-ATP synthase, GST-HisX6 fusion (protein, UniProt P07251 36-545, looked up)
ATP synthase subunit alpha, …: ASTKAQPTEVSSILEERIKGVSDEANLNETGRVLAVGDGIARVFGLNNIQAEELVEFSSGVKGMALNLEPGQVGIVLFGSDRLVKEGELVKRTGNIVDVPVGPGLLGRVVDALGNPIDGKGPIDAAGRSRAQVKAPGILPRRSVHEPVQTGLKAVDALVPIGRGQRELIIGDRQTGKTAVALDTILNQKRWNNGSDESKKLYCVYVAVGQKRSTVAQLVQTLEQHDAMKYSIIVAATASEAAPLQYLAPFTAASIGEWFRDNGKHALIVYDDLSKQAVAYRQLSLLLRRPPGREAYPGDVFYLHSRLLERAAKLSEKEGSGSLTALPVIETQGGDVSAYIPTNVISITDGQIFLEAELFYKGIRPAINVGLSVSRVGSAAQVKALKQVAGSLKLFLAQYREVAAFAQFGSDLDASTKQTLVRGERLTQLLKQNQYSPLATEEQVPLIYAGVNGHLDGIELSRIGEFESSFLSYLKSNHNELLTEIREKGELSKELLASLKSATESFVATF
modifications: GST-His6 tag
notes: yeast alpha subunit of F1-ATP synthase, GST-HisX6 fusion
B4: STP22: yeast protein required for vacuolar targeting of plasma membrane proteins, GST-HisX6 fusion (protein, UniProt P25604 1-385, looked up)
Suppressor protein STP22 of …: MSANGKISVPEAVVNWLFKVIQPIYNDGRTTFHDSLALLDNFHSLRPRTRVFTHSDGTPQLLLSIYGTISTGEDGSSPHSIPVIMWVPSMYPVKPPFISINLENFDMNTISSSLPIQEYIDSNGWIALPILHCWDPAAMNLIMVVQELMSLLHEPPQDQAPSLPPKPNTQLQQEQNTPPLPPKPKSPHLKPPLPPPPPPQPASNALDLMDMDNTDISPTNHHEMLQNLQTVVNELYREDVDYVADKILTRQTVMQESIARFHEIIAIDKNHLRAVEQAIEQTMHSLNAQIDVLTANRAKVQQFSSTSHVDDEDVNSIAVAKTDGLNQLYNLVAQDYALTDTIECLSRMLHRGTIPLDTFVKQGRELARQQFLVRWHIQRITSPLS
modifications: GST-His6 fusion tag
B5: SPS2: yeast sporulation protein of prospore membrane, GST-HisX6 fusion (protein, UniProt P08459 57-475, looked up)
Sporulation-specific protein 2: AVEPNGGPNILDHNIMLVNTNATIPKKEQTDFEVISPTKQTQVDEDCKKGLYHIENAGNLIELQAKCWKVVGNIEISSNYSGSLIDLGLIREIEGDLIIKNNKHIFRIQGYNLESLGKLELDSLTSFVSLDFPALKEVETVDWRVLPILSSVVINGNIKKIKNIIISDTALTSIDYFNNVKKVDIFNINNNRFLENLFASLESVTKQLTVHSNAKELELDLSNLHTVENMTIKDVSEIKLAKLSSVNSSLEFIENQFSSLELPLLAKVQGTLGLIDNKNLKKLNFSNATDIQGGLMIANNTELAKIDFFPKLRQIGGAIYFEGSFDKIDLPELKLVKGSAYIKSSSEELNCEEFTSPKAGRSIIRGGKIECTSGMKSKMLNVDEEGNVLGKQETDNDNGKKEKGKNGAKSQGSSKKMEN
modifications: GST-His6 tag
notes: yeast sporulation protein of prospore membrane, GST-HisX6 fusion
B6: Ypt31p: yeast protein with GTP-binding activity (protein, UniProt P38555 2-223, looked up)
GTP-binding protein YPT31/YPT8: SSEDYGYDYDLLFKIVLIGDSGVGKSNLLSRFTKNEFNMDSKSTIGVEFATRTLEIDGKRIKAQIWDTAGQERYRAITSAYYRGAVGALIVYDISKSSSYENCNHWLSELRENADDNVAVGLIGNKSDLAHLRAVPTEESKTFAQENQLLFTETSALNSENVDKAFEELINTIYQKVSKHQMDLGDSSANGNANGASAPNGPTISLTPTPNENKKANGNNCC

System: PI(4,5)P2 liposomes
Experiment: Yeast proteome chip probed with PI(4,5)P2 liposomes
Conditions: liposome binding signal on yeast proteome chip, Cy3-streptavidin detection

In order of falling “PI(4, 5)P2” value:
1. B1  112.57
2. B2  64.67
3. B5  64.02
4. B3  46.38
5. B4  −8.27

System: PI(3,4,5)P3 liposomes
Experiment: Yeast proteome chip probed with PI(3,4,5)P3 liposomes
Conditions: liposome binding signal on yeast proteome chip, Cy3-streptavidin detection

In order of falling “PI(3, 4, 5)P3” value:
1. B1  66.04
2. B2  39.04
3. B3  26.44
4. B5  25.31
5. B4  22.05

System: PI(3,4)P2 liposomes
Experiment: Yeast proteome chip probed with PI(3,4)P2 liposomes
Conditions: liposome binding signal on yeast proteome chip, Cy3-streptavidin detection

In order of rising “PI(3, 4)P2” value:
1. B4  8.79
2. B3  11.93
3. B5  54.63
4. B2  75.66
5. B1  85.40

System: total yeast genomic DNA
Experiment: Yeast proteome chip probed with labeled genomic DNA
Type: binding
Conditions: Cy3-labeled genomic DNA, visual inspection
Source text: Protein-DNA and protein-RNA interactions are important for many fundamental biological functions such as transcription regulation, chromosome segregation and maintenance, and RNA transport and processing (Williamson, 2000, Nat. Struct. Biol. 7(10):834-7). To explore the possibility of using a proteome chip to identify proteins that bind to DNA or RNA molecules, total yeast genomic DNA was labeled using Cy3-CTP and Klenow fragment, and polyA^+ was labeled using a biotinylated psoralen-derivative (31). Each probe was incubated with a different proteome chip (FIG. 3A).
The protein-nucleic acid interaction was assayed as follows. The nucleic acid robes were labeled as described by Winzeler et al. (1999, Science 285:901). Blocked proteome chips were washed three to five times in PBS buffer, and the extra liquid on the glass surface was removed by tapping the slides vertically on a KIMWIPE™. 200 μl of labeled nuclei acid probe ([…] poly(dC/dG); 100-300 mM NaCl; 50-300 mM HEPES, pH 7.0-8.5; 10 mM MgCl2) was added to the proteome chip and immediately covered by a hydrophobic plastic cover slip (GRACE BIO-LABS™, USA). After trapped air bubbles were removed, the chip was incubated in a humidity chamber in the dark at room temperature (“RT”) for one hour. To remove the cover slip, the chip was immersed into large volume of PBS buffer(>50 ml), so that the slip would float away. The chip was then moved to a second PBS bath (>50 ml) and washed 3×5 min with shaking in the dark at RT. To completely remove the liquid on the chip, the chip was spun to dryness at 1500-2000 rpm for 5-10 min at RT.

For B2, the “binding of genomic DNA probe” value was “bind the DNA probe”.
For B6, the “binding of genomic DNA probe” value was “bind the DNA probe”.

System: PI(4)P liposomes
Experiment: Yeast proteome chip probed with PI(4)P liposomes
Conditions: liposome binding signal on yeast proteome chip, Cy3-streptavidin detection

In order of falling “PI(4)P” value:
1. B1  85.35
2. B2  55.09
3. B5  47.47
4. B3  28.09
5. B4  10.89

System: PI(3)P liposomes
Experiment: Yeast proteome chip probed with PI(3)P liposomes
Conditions: liposome binding signal on yeast proteome chip, Cy3-streptavidin detection

In order of falling “PI(3)P” value:
1. B4  51.50
2. B1  42.50
3. B5  18.50
4. B2  13.75

System: phosphatidylcholine (PC) liposomes
Experiment: Yeast proteome chip probed with PC liposomes
Conditions: liposome binding signal on yeast proteome chip, Cy3-streptavidin detection
In short: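 Sonicated liposomes in TBS, of phosphatidylcholine with 1% (w/w) biotin-DHPE plus 5% (w/w) of the named phosphoinositide (PC-only liposomes lacking it), were incubated on blocked chips of GST-RGS-His6-tagged yeast ORF proteins for 1 h at RT. Bound liposomes were detected with Cy3- or Cy5-streptavidin after PBS washes.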

In order of falling PC:
1. B1  137.64
2. B5  44.61
3. B2  43.14
4. B4  2.93
5. B3  0.29

System: phospholipids (phosphatidylinositols vs phosphatidylcholine)
Experiment: Proteome chip lipid-binding screen, overall analysis of six liposomes (PI/PC specificity)
Conditions: compared with phosphatidylcholine
Source text: FIGS. 4A-4D. Analysis of the phosphatidylinositol-binding proteins. To determine the phosphatidylinositol (“PI”)-binding specificity of 150 positive proteins, their binding signals were normalized against the corresponding binding signals of phosphatidylcholine (“PC”). Based on the ratios (“PI/PC”), the proteins were grouped into four categories: (A) 30 strong and specific, (B) 43 strong and nonspecific, (C) 19 weak and specific, and (D) 58 weak and nonspecific phosphatidylinositol-binding proteins. The intensity represents the PI/PC signal ratio as shown by the scale in the figure. The column, labeled “10^n” to the right of the PI/PC binding ratios indicates the maximum binding signal intensity (open boxes) and its confidence interval (solid horizontal lines); the numbers indicate the log of the values. Boxes in the three columns to the right of the confidence interval column indicate membrane-associated proteins (“Membrane”), kinases (“Kinase”), and uncharacterized ORFs (“Unknown”), respectively.
To identify PI-binding proteins in yeast, liposomes were used as probes because the liposome provides the most relevant physiological condition to assay the interactors. Six types of liposomes were used. Each contains phosphatidylcholine (“PC”) with 1% (w/w) N-(biotinoyl)-1,2-dihexadecanoyl-sn-glycero-3-phosphoethanolamine, triethylammonium salt (biotin DHPE). The biotinylated lipid serves as a label that can be detected by Cy3-streptavidin (21). In addition to PC, the five other liposomes contain either 5% (w/w) PI(3)P, PI(4)P, PI(3,4)P2, PI(4,5)P2, or PI(3,4,5)P3 (FIG. 3A).
The protein-liposome interaction was assayed as follows. Appropriate amounts of each lipid in chloroform were mixed and dried under nitrogen. The lipid mixture was resuspended in TBS buffer by vortexing. The liposomes were created by sonication. Blocked proteome chips were washed three to five times in PBS buffer, and the extra liquid on the glass surface was removed by tapping the slides vertically on a KIMWIPE™. 200 μl of liposome solution was added to the proteome chip and immediately covered by a hydrophobic plastic cover slip (GRACE BIO-LAB™, USA). After trapped air bubbles were removed, the chip was incubated in a humidity chamber at RT for one hour. To remove the cover slip, the chip was immersed into large volume of PBS buffer (50 ml), so that the slip would float away. The chip was then moved to a second PBS bath (>50 ml) and washed 3×5 min with shaking at RT. After removing extra liquid on the surface of the chip, about 100 μl of Cy3 or Cy5 conjugated streptavidin (PIERCE™, USA; 1:2000 to 1:4000 dilution) was added to the surface and covered by a hydrophobic plastic cover slip (GRACE BIO-LABS™, USA). The chip was incubated for greater than 30 min in the dark at RT. The chip was then washed as described above. To completely remove the liquid on the chip, the chip was spun to dryness at 1500-2000 rpm for 5-10 min at RT.
An algorithm was devised to assist in the identification of positive signals (42). Fifty-two (35%) of the interactors (i.e., lipid-binding proteins) correspond to uncharacterized proteins thus ascribing the first biochemical activities to those proteins.
The interactors (i.e., phospholipid-binding proteins) were grouped in several ways (42). First, the interactors were sorted according to whether they bound lipids strongly or weakly, based on the phospholipid-binding signal relative to the amount of GST (FIG. 4). Slightly more (72%) of the strong lipid binding proteins (FIGS. 4A and 4B) were characterized relative to the weakly binding proteins (54%) (FIGS. 4C and 4D). Many of the strong lipid-binding proteins are membrane-associated, or are predicted to be associated with membranes, whereas fewer of the weaker binding proteins appear to be associated with membranes (FIG. 4, “Membrane” column). […] Moreover, thirteen of the seventeen protein kinases bind very strongly to the phospholipids. […]

For B3, the “preferential binding of particular phosphatidylinositol lipids” value (shortened to “preferential binding”) was “preferentially binds PI(3,4)P2”.
For B4, the “preferential binding” value was “preferentially binds PI(4)P”.
For B5, the “preferential binding” value was “preferentially interacts with PI(3)P”.

Same assay, conditions: phospholipid liposome probes

In the case of B1, the “identified as lipid-binding interactor” value is reported as “identified”.
